Data published in US20140087995A1 (published 2014).
One block for each binder: values may come before it. Numbered stars: 1 amine (or outer) side, 2 acyl side, 3 side chain; on linkers, the order of the positions; unused ones are H or OH. Bridge positions count the residues as written; N and C are the ends. Side chains are listed from the residue outwards. Ends that are not written are not given here. * marks the point of attachment. C20 diacid = O=C(O)CCCCCCCCCCCCCCCCCCC(=O)*; γGlu = O=C(O)[C@H](CCC(=O)[*:2])N[*:1]

Biological target: T1, human calcitonin receptor (human, UniProt P30988 25-474)
T1 construct: whole, on cells; Used as cell membranes prepared from the transfected BHK cells (Assay VII), not as intact cells; also called hCTR; hCT
T1 sequence (looked up): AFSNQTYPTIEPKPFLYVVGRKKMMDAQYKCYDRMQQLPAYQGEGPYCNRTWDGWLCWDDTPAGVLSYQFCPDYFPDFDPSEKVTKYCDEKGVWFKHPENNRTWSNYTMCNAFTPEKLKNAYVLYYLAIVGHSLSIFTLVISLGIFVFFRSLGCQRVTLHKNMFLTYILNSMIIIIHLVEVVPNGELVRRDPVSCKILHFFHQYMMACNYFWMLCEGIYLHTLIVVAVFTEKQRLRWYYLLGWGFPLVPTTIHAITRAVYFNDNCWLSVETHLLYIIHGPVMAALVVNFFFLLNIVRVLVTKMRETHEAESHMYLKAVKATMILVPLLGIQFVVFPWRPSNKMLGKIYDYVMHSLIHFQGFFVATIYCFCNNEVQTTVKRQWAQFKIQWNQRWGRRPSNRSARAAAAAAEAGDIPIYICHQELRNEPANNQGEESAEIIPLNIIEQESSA
Assay: SPA competition against 125I-calcitonin, membranes with human calcitonin receptor (Assay VII)
Method: Membranes were prepared in the following way; the cells were rinsed with PBS and incubated with Versene for approximately 5 min before harvesting. The cells were flushed with PBS and the cell-suspension was centrifuged for 5 min at 1000 rpm. Cells were homogenized (Ultrathurrax) in a buffer containing 20 mM Na-HEPES and 10 mM EDTA (pH 7.4) and centrifuged at 20.000 rpm for 15 min. The resulting pellet was resuspended, homogenized and centrifuged (20.000 rpm, 15 min) in a buffer containing 20 mM Na-HEPES and 0.1 mM EDTA (pH 7.4, buffer 2). The resulting pellet was resuspended in buffer 2 and protein concentration was measured (BCA protein Assay, Pierce). The homogenate was kept cold during the whole procedure. The membranes were kept at −80° C. until use. Assay was performed in a 384 well Optiplate (PerkinElmer) in a total volume of 40 ul. Membranes were mixed with SPA beads. Final concentration of membranes 35 ng/μL final and Final concentration of SPA beads was 0.05 mg/well. Test-compounds were dissolved in DMSO and further diluted in assay buffer (50 mM Hepes, pH 7.4, 1 mM CaCl2, 5 mM MgCl₂, 0.1% OA and 0.02% Tween20). […] The final mixture was incubated for 120 min with shaking at 400 rpm at 25° C. prior to centrifugation (1500 rpm, 10 min). Samples were analyzed on TopCounter™ (Packard). The […] was calculated using (one site binding competition analysis) GraphPad Prism5 as a measure of receptor affinity.

B1: N^ε1-[(4S)-4-carboxy-4-(19-carboxynonadecanoylamino)butanoyl]-[Arg17,Pro21,Pro27,Lys35]-h-amylin (peptide)
peptide: K([γGlu-C20 diacid])CNTATCATQRLANFLRHSSPNFGAIPSSTNVGSKTY-NH2
modifications: disulfide 2-7; N-terminus assumed
SMILES: CC[C@H](C)[C@H](NC(=O)[C@H](C)NC(=O)CNC(=O)[C@H](Cc1ccccc1)NC(=O)[C@H](CC(N)=O)NC(=O)[C@@H]1CCCN1C(=O)[C@H](CO)NC(=O)[C@H](CO)NC(=O)[C@H](Cc1c[nH]cn1)NC(=O)[C@H](CCCNC(=N)N)NC(=O)[C@H](CC(C)C)NC(=O)[C@H](Cc1ccccc1)NC(=O)[C@H](CC(N)=O)NC(=O)[C@H](C)NC(=O)[C@H](CC(C)C)NC(=O)[C@H](CCCNC(=N)N)NC(=O)[C@H](CCC(N)=O)NC(=O)[C@@H](NC(=O)[C@H](C)NC(=O)[C@@H]1CSSC[C@H](NC(=O)[C@@H](N)CCCCNC(=O)CC[C@H](NC(=O)CCCCCCCCCCCCCCCCCCC(=O)O)C(=O)O)C(=O)N[C@@H](CC(N)=O)C(=O)N[C@@H]([C@@H](C)O)C(=O)N[C@@H](C)C(=O)N[C@@H]([C@@H](C)O)C(=O)N1)[C@@H](C)O)C(=O)N1CCC[C@H]1C(=O)N[C@@H](CO)C(=O)N[C@@H](CO)C(=O)N[C@H](C(=O)N[C@@H](CC(N)=O)C(=O)N[C@H](C(=O)NCC(=O)N[C@@H](CO)C(=O)N[C@@H](CCCCN)C(=O)N[C@H](C(=O)N[C@@H](Cc1ccc(O)cc1)C(N)=O)[C@@H](C)O)C(C)C)[C@@H](C)O
notes: also called compound 35
IC50: 48.8 nM

B4: N^ε1-[(4S)-4-carboxy-4-[[(4S)-4-carboxy-4-(19-carboxynonadecanoylamino)butanoyl]amino]butanoyl]-[Asp14,Arg17,Pro21,Pro26,Asp35]-h-amylin (peptide)
peptide: K([γGlu-γGlu-C20 diacid])CNTATCATQRLADFLRHSSPNFGAPLSSTNVGSDTY-NH2
modifications: disulfide 2-7; N-terminus assumed
SMILES: CC(C)C[C@H](NC(=O)[C@H](CCCNC(=N)N)NC(=O)[C@H](CCC(N)=O)NC(=O)[C@@H](NC(=O)[C@H](C)NC(=O)[C@@H]1CSSC[C@H](NC(=O)[C@@H](N)CCCCNC(=O)CC[C@H](NC(=O)CC[C@H](NC(=O)CCCCCCCCCCCCCCCCCCC(=O)O)C(=O)O)C(=O)O)C(=O)N[C@@H](CC(N)=O)C(=O)N[C@@H]([C@@H](C)O)C(=O)N[C@@H](C)C(=O)N[C@@H]([C@@H](C)O)C(=O)N1)[C@@H](C)O)C(=O)N[C@@H](C)C(=O)N[C@@H](CC(=O)O)C(=O)N[C@@H](Cc1ccccc1)C(=O)N[C@@H](CC(C)C)C(=O)N[C@@H](CCCNC(=N)N)C(=O)N[C@@H](Cc1c[nH]cn1)C(=O)N[C@@H](CO)C(=O)N[C@@H](CO)C(=O)N1CCC[C@H]1C(=O)N[C@@H](CC(N)=O)C(=O)N[C@@H](Cc1ccccc1)C(=O)NCC(=O)N[C@@H](C)C(=O)N1CCC[C@H]1C(=O)N[C@@H](CC(C)C)C(=O)N[C@@H](CO)C(=O)N[C@@H](CO)C(=O)N[C@H](C(=O)N[C@@H](CC(N)=O)C(=O)N[C@H](C(=O)NCC(=O)N[C@@H](CO)C(=O)N[C@@H](CC(=O)O)C(=O)N[C@H](C(=O)N[C@@H](Cc1ccc(O)cc1)C(N)=O)[C@@H](C)O)C(C)C)[C@@H](C)O
notes: also called compound 1
IC50: 32.5 nM

B5: N{Alpha-1}-[(4S)-4-carboxy-4-(19-carboxynonadecanoylamino)butanoyl]-[Glu14,Arg17,Pro21,Pro27,Lys34]-h-amylin (peptide)
peptide: {C20 diacid-γGlu}-KCNTATCATQRLAEFLRHSSPNFGAIPSSTNVGKNTY-NH2
modifications: disulfide 2-7
SMILES: CC[C@H](C)[C@H](NC(=O)[C@H](C)NC(=O)CNC(=O)[C@H](Cc1ccccc1)NC(=O)[C@H](CC(N)=O)NC(=O)[C@@H]1CCCN1C(=O)[C@H](CO)NC(=O)[C@H](CO)NC(=O)[C@H](Cc1c[nH]cn1)NC(=O)[C@H](CCCNC(=N)N)NC(=O)[C@H](CC(C)C)NC(=O)[C@H](Cc1ccccc1)NC(=O)[C@H](CCC(=O)O)NC(=O)[C@H](C)NC(=O)[C@H](CC(C)C)NC(=O)[C@H](CCCNC(=N)N)NC(=O)[C@H](CCC(N)=O)NC(=O)[C@@H](NC(=O)[C@H](C)NC(=O)[C@@H]1CSSC[C@H](NC(=O)[C@H](CCCCN)NC(=O)CC[C@H](NC(=O)CCCCCCCCCCCCCCCCCCC(=O)O)C(=O)O)C(=O)N[C@@H](CC(N)=O)C(=O)N[C@@H]([C@@H](C)O)C(=O)N[C@@H](C)C(=O)N[C@@H]([C@@H](C)O)C(=O)N1)[C@@H](C)O)C(=O)N1CCC[C@H]1C(=O)N[C@@H](CO)C(=O)N[C@@H](CO)C(=O)N[C@H](C(=O)N[C@@H](CC(N)=O)C(=O)N[C@H](C(=O)NCC(=O)N[C@@H](CCCCN)C(=O)N[C@@H](CC(N)=O)C(=O)N[C@H](C(=O)N[C@@H](Cc1ccc(O)cc1)C(N)=O)[C@@H](C)O)C(C)C)[C@@H](C)O
notes: also called compound 36
IC50: 6.3 nM

Continued, values first:

IC50: 19.5 nM
B2: N^ε1-[(4S)-4-carboxy-4-[[(4S)-4-carboxy-4-(19-carboxynonadecanoylamino)butanoyl]amino]butanoyl]-[Asp14,Arg17,Pro21,Pro27,Asp35]-h-amylin (peptide)
peptide: K([γGlu-γGlu-C20 diacid])CNTATCATQRLADFLRHSSPNFGAIPSSTNVGSDTY-NH2
modifications: disulfide 2-7; N-terminus assumed
SMILES: CC[C@H](C)[C@H](NC(=O)[C@H](C)NC(=O)CNC(=O)[C@H](Cc1ccccc1)NC(=O)[C@H](CC(N)=O)NC(=O)[C@@H]1CCCN1C(=O)[C@H](CO)NC(=O)[C@H](CO)NC(=O)[C@H](Cc1c[nH]cn1)NC(=O)[C@H](CCCNC(=N)N)NC(=O)[C@H](CC(C)C)NC(=O)[C@H](Cc1ccccc1)NC(=O)[C@H](CC(=O)O)NC(=O)[C@H](C)NC(=O)[C@H](CC(C)C)NC(=O)[C@H](CCCNC(=N)N)NC(=O)[C@H](CCC(N)=O)NC(=O)[C@@H](NC(=O)[C@H](C)NC(=O)[C@@H]1CSSC[C@H](NC(=O)[C@@H](N)CCCCNC(=O)CC[C@H](NC(=O)CC[C@H](NC(=O)CCCCCCCCCCCCCCCCCCC(=O)O)C(=O)O)C(=O)O)C(=O)N[C@@H](CC(N)=O)C(=O)N[C@@H]([C@@H](C)O)C(=O)N[C@@H](C)C(=O)N[C@@H]([C@@H](C)O)C(=O)N1)[C@@H](C)O)C(=O)N1CCC[C@H]1C(=O)N[C@@H](CO)C(=O)N[C@@H](CO)C(=O)N[C@H](C(=O)N[C@@H](CC(N)=O)C(=O)N[C@H](C(=O)NCC(=O)N[C@@H](CO)C(=O)N[C@@H](CC(=O)O)C(=O)N[C@H](C(=O)N[C@@H](Cc1ccc(O)cc1)C(N)=O)[C@@H](C)O)C(C)C)[C@@H](C)O
notes: also called compound 2

IC50: 19.5 nM
B3: N^ε1-[(4S)-4-carboxy-4-[[(4S)-4-carboxy-4-(19-carboxynonadecanoylamino)butanoyl]amino]butanoyl]-[Asp14,Arg17,Pro22,Pro26,Asp35]-h-amylin (peptide)
peptide: K([γGlu-γGlu-C20 diacid])CNTATCATQRLADFLRHSSNPFGAPLSSTNVGSDTY-NH2
modifications: disulfide 2-7; N-terminus assumed
SMILES: CC(C)C[C@H](NC(=O)[C@H](CCCNC(=N)N)NC(=O)[C@H](CCC(N)=O)NC(=O)[C@@H](NC(=O)[C@H](C)NC(=O)[C@@H]1CSSC[C@H](NC(=O)[C@@H](N)CCCCNC(=O)CC[C@H](NC(=O)CC[C@H](NC(=O)CCCCCCCCCCCCCCCCCCC(=O)O)C(=O)O)C(=O)O)C(=O)N[C@@H](CC(N)=O)C(=O)N[C@@H]([C@@H](C)O)C(=O)N[C@@H](C)C(=O)N[C@@H]([C@@H](C)O)C(=O)N1)[C@@H](C)O)C(=O)N[C@@H](C)C(=O)N[C@@H](CC(=O)O)C(=O)N[C@@H](Cc1ccccc1)C(=O)N[C@@H](CC(C)C)C(=O)N[C@@H](CCCNC(=N)N)C(=O)N[C@@H](Cc1c[nH]cn1)C(=O)N[C@@H](CO)C(=O)N[C@@H](CO)C(=O)N[C@@H](CC(N)=O)C(=O)N1CCC[C@H]1C(=O)N[C@@H](Cc1ccccc1)C(=O)NCC(=O)N[C@@H](C)C(=O)N1CCC[C@H]1C(=O)N[C@@H](CC(C)C)C(=O)N[C@@H](CO)C(=O)N[C@@H](CO)C(=O)N[C@H](C(=O)N[C@@H](CC(N)=O)C(=O)N[C@H](C(=O)NCC(=O)N[C@@H](CO)C(=O)N[C@@H](CC(=O)O)C(=O)N[C@H](C(=O)N[C@@H](Cc1ccc(O)cc1)C(N)=O)[C@@H](C)O)C(C)C)[C@@H](C)O
notes: also called compound 3

IC50: 56.9 nM
B6: N^ε1-[(4S)-4-carboxy-4-[[(4S)-4-carboxy-4-(19-carboxynonadecanoylamino)butanoyl]amino]butanoyl]-[Asp14,Arg17,Pro21,Pro27,Arg35]-h-amylin (peptide)
peptide: K([γGlu-γGlu-C20 diacid])CNTATCATQRLADFLRHSSPNFGAIPSSTNVGSRTY-NH2
modifications: disulfide 2-7; N-terminus assumed
SMILES: CC[C@H](C)[C@H](NC(=O)[C@H](C)NC(=O)CNC(=O)[C@H](Cc1ccccc1)NC(=O)[C@H](CC(N)=O)NC(=O)[C@@H]1CCCN1C(=O)[C@H](CO)NC(=O)[C@H](CO)NC(=O)[C@H](Cc1c[nH]cn1)NC(=O)[C@H](CCCNC(=N)N)NC(=O)[C@H](CC(C)C)NC(=O)[C@H](Cc1ccccc1)NC(=O)[C@H](CC(=O)O)NC(=O)[C@H](C)NC(=O)[C@H](CC(C)C)NC(=O)[C@H](CCCNC(=N)N)NC(=O)[C@H](CCC(N)=O)NC(=O)[C@@H](NC(=O)[C@H](C)NC(=O)[C@@H]1CSSC[C@H](NC(=O)[C@@H](N)CCCCNC(=O)CC[C@H](NC(=O)CC[C@H](NC(=O)CCCCCCCCCCCCCCCCCCC(=O)O)C(=O)O)C(=O)O)C(=O)N[C@@H](CC(N)=O)C(=O)N[C@@H]([C@@H](C)O)C(=O)N[C@@H](C)C(=O)N[C@@H]([C@@H](C)O)C(=O)N1)[C@@H](C)O)C(=O)N1CCC[C@H]1C(=O)N[C@@H](CO)C(=O)N[C@@H](CO)C(=O)N[C@H](C(=O)N[C@@H](CC(N)=O)C(=O)N[C@H](C(=O)NCC(=O)N[C@@H](CO)C(=O)N[C@@H](CCCNC(=N)N)C(=O)N[C@H](C(=O)N[C@@H](Cc1ccc(O)cc1)C(N)=O)[C@@H](C)O)C(C)C)[C@@H](C)O
notes: also called compound 52
